Assays:
gga3_human GGA3 = target: T1, gga3_human GGA3 (UniProt Q9NZ52)
T1 sequence: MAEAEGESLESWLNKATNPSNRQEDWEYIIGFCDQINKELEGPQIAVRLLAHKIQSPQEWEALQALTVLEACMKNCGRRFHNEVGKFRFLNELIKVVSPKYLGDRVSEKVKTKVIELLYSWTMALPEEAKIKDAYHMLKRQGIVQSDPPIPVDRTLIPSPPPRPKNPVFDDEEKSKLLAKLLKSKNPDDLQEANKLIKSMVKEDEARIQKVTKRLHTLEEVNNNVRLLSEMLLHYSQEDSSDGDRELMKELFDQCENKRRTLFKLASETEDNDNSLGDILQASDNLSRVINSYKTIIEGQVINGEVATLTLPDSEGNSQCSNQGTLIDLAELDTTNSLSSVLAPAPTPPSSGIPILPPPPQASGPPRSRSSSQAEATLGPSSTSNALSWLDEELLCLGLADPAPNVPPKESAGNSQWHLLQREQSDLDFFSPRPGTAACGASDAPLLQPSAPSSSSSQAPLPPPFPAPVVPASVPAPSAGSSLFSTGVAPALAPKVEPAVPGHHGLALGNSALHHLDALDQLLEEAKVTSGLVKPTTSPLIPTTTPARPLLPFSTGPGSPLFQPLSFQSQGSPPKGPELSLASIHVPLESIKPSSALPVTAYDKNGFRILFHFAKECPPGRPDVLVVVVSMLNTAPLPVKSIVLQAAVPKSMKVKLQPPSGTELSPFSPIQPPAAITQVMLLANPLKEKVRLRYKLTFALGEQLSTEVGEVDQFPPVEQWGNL

csk21_human CSNK2A1 = csk21_human CSNK2A1 (UniProt P68400)
Chain of csk21_human CSNK2A1 (P68400 whole entry, looked up): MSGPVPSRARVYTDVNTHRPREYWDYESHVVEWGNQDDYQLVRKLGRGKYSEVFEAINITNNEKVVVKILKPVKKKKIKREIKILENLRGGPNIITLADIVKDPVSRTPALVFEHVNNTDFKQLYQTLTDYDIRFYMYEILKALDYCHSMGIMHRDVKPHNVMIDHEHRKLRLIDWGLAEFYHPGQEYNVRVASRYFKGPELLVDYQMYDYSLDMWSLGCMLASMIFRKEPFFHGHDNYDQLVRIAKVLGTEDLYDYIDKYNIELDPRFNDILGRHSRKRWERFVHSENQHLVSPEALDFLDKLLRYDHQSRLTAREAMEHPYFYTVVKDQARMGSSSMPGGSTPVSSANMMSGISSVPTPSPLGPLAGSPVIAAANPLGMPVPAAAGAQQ

csk2b_human CSNK2B = csk2b_human CSNK2B (UniProt P67870)
Chain of csk2b_human CSNK2B (P67870 whole entry): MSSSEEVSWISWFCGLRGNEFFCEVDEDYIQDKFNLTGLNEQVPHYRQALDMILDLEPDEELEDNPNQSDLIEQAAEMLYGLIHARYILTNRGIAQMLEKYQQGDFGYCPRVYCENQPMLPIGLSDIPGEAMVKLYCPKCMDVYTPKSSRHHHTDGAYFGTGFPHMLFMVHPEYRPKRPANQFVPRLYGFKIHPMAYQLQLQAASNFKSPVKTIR

csk21_rat Csnk2a1 = csk21_rat Csnk2a1 (UniProt P19139)
Chain of csk21_rat Csnk2a1 (P19139 whole entry, looked up): as the sequence (P68400 whole entry, looked up) above, with G335S, S337A, S338G, P340A, P378S, M381I counted along it

| Substance | effect of a mutation on the interaction (gga3_human GGA3) | effect of a mutation on the interaction (csk21_human CSNK2A1) | effect of a mutation on the interaction (csk2b_human CSNK2B) | effect of a mutation on the interaction (csk21_rat Csnk2a1) |
| --- | --- | --- | --- | --- |
| Phosphofurin acidic cluster sorting protein 1 (Homo sapiens) (from UniProt Q6VY07) K249W | disrupting interaction |  |  |  |
| Phosphofurin acidic cluster sorting protein 1 (Homo sapiens) (from UniProt Q6VY07) R196A;R197A;K198A;R199A;Y200A |  | disrupting interaction | disrupting interaction | disrupting interaction strength |
| Phosphofurin acidic cluster sorting protein 1 (Homo sapiens) (from UniProt Q6VY07) Y251A | disrupting interaction |  |  |  |

Reference: IntAct's records for PubMed 16977309
